For assay [1], the target named is T1, human TNF-α (human, UniProt P01375 77-233).
T1 construct: also called Hu TNF; soluble hu TNF
As to the kind of experiment: SPR, bispecific captured on anti-human Fc chip, TNF injected, 1:1 model.
Description: Goat anti-human Fc was first immobilized on SCM5 sensor chip using amine coupling. […] On rate, off rate and equilibrium dissociation constant were calculated using 1:1 binding model on BIAevaluation software.

In assay [2] the target is T2, human TL1A (human, UniProt O95150 72-251, limits assumed).
T2 construct: The assays name only 'human TL1A protein'; also called huTL1A; Hu TL1A
T2 sequence (looked up): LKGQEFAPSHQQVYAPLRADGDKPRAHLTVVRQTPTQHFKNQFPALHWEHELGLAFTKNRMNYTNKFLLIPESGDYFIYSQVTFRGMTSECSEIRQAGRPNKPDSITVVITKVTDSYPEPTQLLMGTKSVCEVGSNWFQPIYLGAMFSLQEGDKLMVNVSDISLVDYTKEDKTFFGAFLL
Description: SPR, bispecific captured on anti-human Fc chip, TL1A injected, 1:1 model. (In general: In SPR one partner is held on a chip, and binding of the other changes the refractive index at the surface.)
Description: (§1) On rate, off rate and equilibrium dissociation constant were calculated using 1:1 binding model on BIAevaluation software.

Assay [3] addresses T2, human TL1A. As to the kind of experiment: cell-based or functional assay.
Assay [4] concerns the target T3, cynomolgus TL1A (cynomolgus monkey, UniProt G7PRK8 72-251).
T3 sequence: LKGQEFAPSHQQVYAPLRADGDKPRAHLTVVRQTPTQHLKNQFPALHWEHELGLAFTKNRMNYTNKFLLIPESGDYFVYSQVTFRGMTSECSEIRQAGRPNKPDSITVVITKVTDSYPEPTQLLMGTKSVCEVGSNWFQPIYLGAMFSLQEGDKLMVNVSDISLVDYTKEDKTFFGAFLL
As to the kind of experiment: cell-based or functional assay.

Assay [5] has as its target T2, human TL1A. As to the kind of experiment: SPR, mAb captured on anti-human Fc chip, TL1A injected, 1:1 model.
Description: as §1
The target in assay [6] is T3, cynomolgus TL1A. Described as above.
Description: as §1
Assay [7] deals with T2, human TL1A. As to the kind of experiment: SPR, Fab captured on anti-huFab chip, TL1A injected, 1:1 model.
Description: as §1
Assay [8] concerns the target T3, cynomolgus TL1A. Described as above.
Description: as §1
The target of assay [9] is T3, cynomolgus TL1A. Description: SPR, Fab captured on anti-huFab chip, TL1A injected.
Description: as §1

T1 sequence (P01375 77-233 limits assumed): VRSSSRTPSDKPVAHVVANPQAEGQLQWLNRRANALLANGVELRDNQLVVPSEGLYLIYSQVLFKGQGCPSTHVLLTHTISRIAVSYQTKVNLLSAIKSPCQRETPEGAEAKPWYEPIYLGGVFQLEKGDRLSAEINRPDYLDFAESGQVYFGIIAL

B1: hetero Ig certolizumab var/2G11 var, iPS 349461 (bispecific antibody, human IgG1, kappa, N297G)
light 1: not shown
heavy 1: not shown
light 2: DIQMTQSPSSLSASVGDRVTITCRASQSINNYLNWYQKKPGKAPKLLIYATSSLQSGVPSRFSGSGSGTDFSLTISSLQPEDFATYFCQQSYSTPRTFGQGTKVEIKRTVAAPSVFIFPPSDEQLKSGTASVVCLLNNFYPREAKVQWKVDNALQSGNSQESVTEQDSKDSTYSLKSTLTLSKADYEKHKVYACEVTHQGLSSPVTKSFNRGEC
heavy 2: QVQLQESGPGLVKPSETLSLTCTVSGGSISSYFWSWIREPPGKGLEWIGYIYYSGSTNYNPSLKSRVTMSIDTSKNQFSLKLSSVTAADTAVYYCAREIGSYYGFDYWGQGTLVTVSSASTKGPSVFPLAPSSKSTSGGTAALGCLVKDYFPEPVTVSWNSGALTSGVHTFPAVLQSSGLYSLESVVTVPSSSLGTQTYICNVNHKPSNTKVDKKVEPKSCDKTHTCPPCPAPELLGGPSVFLFPPKPKDTLMISRTPEVTCVVVDVSHEDPEVKFNWYVDGVEVHNAKTKPCEEQYGSTYRCVSVLTVLHQDWLNGKEYKCKVSNKALPAPIEKTISKAKGQPREPQVYTLPPSRKEMTKNQVSLTCLVKGFYPSDIAVEWESNGQPENNYKTTPPVLKSDGSFFLYSKLTVDKSRWQQGNVFSCSVMHEALHNHYTQKSLSLSPGK
notes: Heterotetramer with one arm against TNF-α and one against TL1A; also called PL-42787
In assay [1], B1 registered a Kd of 0.019 nM, a koff of 6.4e-05 s⁻¹ and a kon of 3.4e+06 M⁻¹ s⁻¹. In assay [2], this molecule had a Kd of 0.25 nM, a koff of 0.00013 s⁻¹ and a kon of 540000 M⁻¹ s⁻¹.

B2: hetero Ig certolizumab var/23B3 VH4, iPS 349463 (bispecific antibody, human IgG1, kappa, N297G)
light 1: not shown
heavy 1: not shown
light 2: not shown
heavy 2: QVQLQESGPGLVKPSETLSLTCTISGDSVSTNSVAWNWIREPPGKGLEWIGRTYYRSKWYNDYAVSLKSRVTISPDTSKNQFSLKLSSVTAADTAVYYCAREDGDSYYRYGMDVWGQGTTVTVSSASTKGPSVFPLAPSSKSTSGGTAALGCLVKDYFPEPVTVSWNSGALTSGVHTFPAVLQSSGLYSLESVVTVPSSSLGTQTYICNVNHKPSNTKVDKKVEPKSCDKTHTCPPCPAPELLGGPSVFLFPPKPKDTLMISRTPEVTCVVVDVSHEDPEVKFNWYVDGVEVHNAKTKPCEEQYGSTYRCVSVLTVLHQDWLNGKEYKCKVSNKALPAPIEKTISKAKGQPREPQVYTLPPSRKEMTKNQVSLTCLVKGFYPSDIAVEWESNGQPENNYKTTPPVLKSDGSFFLYSKLTVDKSRWQQGNVFSCSVMHEALHNHYTQKSLSLSPGK
notes: Heterotetramer with one arm against TNF-α and one against TL1A; also called PL-42788
As to B2, in assay [1], the affinity, expressed as Kd, was 0.016 nM; the koff came to 5.5e-05 s⁻¹; the kon was determined as 3.4e+06 M⁻¹ s⁻¹. Besides, in [2], binding was put at a Kd of 0.64 nM, the koff is 0.0004 s⁻¹ and the kon worked out at 630000 M⁻¹ s⁻¹.

B3: anti-TL1A mAb 23B3 (antibody, human IgG1, kappa, N297G, V domains shown)
VH: QVQLQQSGPGLVKPSQTLSLTCVISGDSVSTNSVAWNWIRQSPSRGLEWLGRTYYRSKWYNDYAVSVKSRITINPDTSKNQFSLQLNSVTPEDTAVYYCAREDGDSYYRYGMDVWGQGTTVTVSS
VL: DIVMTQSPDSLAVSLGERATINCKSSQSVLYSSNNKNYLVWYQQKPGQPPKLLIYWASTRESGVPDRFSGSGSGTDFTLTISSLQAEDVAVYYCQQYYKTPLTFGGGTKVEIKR
notes: also called iPS 290043
B3: the “NF-kB IC50 nM, huTL1A (0.2 nM)” value in assay [3] is 0.089 nM. For the same molecule, the “NF-kB IC50 nM, cyno TL1A (2 nM)” value in assay [4] turned out to be 0.619 nM. Further, in assay [5], the Kd amounted to 0.89 nM, the koff was 0.00042 s⁻¹ and the kon was determined as 470000 M⁻¹ s⁻¹. In [6], this molecule registered a Kd of 1.4 nM, a koff of 0.00032 s⁻¹ and a kon of 230000 M⁻¹ s⁻¹.

B4: anti-TL1A Fab 23B3 (Fab, V domains shown)
VH: QVQLQQSGPGLVKPSQTLSLTCVISGDSVSTNSVAWNWIRQSPSRGLEWLGRTYYRSKWYNDYAVSVKSRITINPDTSKNQFSLQLNSVTPEDTAVYYCAREDGDSYYRYGMDVWGQGTTVTVSS
VL: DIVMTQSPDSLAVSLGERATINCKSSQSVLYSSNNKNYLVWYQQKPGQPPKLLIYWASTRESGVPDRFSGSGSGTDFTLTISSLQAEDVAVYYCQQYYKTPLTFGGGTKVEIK
notes: Fab fragment; the Fab's constant parts are not; also called 23B3 Fab; PL-38024
As for B4, the “NF-kB IC50 nM, huTL1A (0.2 nM)” value in [3] was 2.99 nM. Also, in assay [4], the “NF-kB IC50 nM, cyno TL1A (2 nM)” value amounted to 2.63 nM. For the same molecule, in assay [7], binding was put at a Kd of 0.85 nM, the koff came to 0.00064 s⁻¹ and the kon is 760000 M⁻¹ s⁻¹. In assay [8], this molecule showed a Kd of 0.31 nM, a koff of 0.00016 s⁻¹ and a kon of 530000 M⁻¹ s⁻¹.

B5: anti-TL1A Fab 3C6 (Fab, V domains shown)
VH: QVQLVESGGGVVQPGRSLRLSCAASGFTFSSYGMHWVRQAPGKGLEWVAVISYDGNNKLYTDSVKGRFTISRDDSKSTLYLQMNSLRAEDTAVYYCARDPTVTLYYYYGMDVWGQGTTVTVSS
VL: DIQMTQSPSSLSASVGDRVTITCRTSQDIRDDLGWYQQKPGKAPKRLIYDASSLQSGVPSRFSGSGSGTEFTLTISSLQPEDFATYYCLQHNSYPPTFGQGTKVEIK
notes: Fab fragment; the Fab's constant parts are not; also called 3C6 Fab; PL-39193
Turning to B5, the “NF-kB IC50 nM, huTL1A (0.2 nM)” value in assay [3] was 0.162 nM. The “NF-kB IC50 nM, cyno TL1A (2 nM)” value in assay [4] is over 100 nM. Moreover, in [9], the binding result is recorded as “no binding (tested: 100 nM)”. In addition, in [7], the Kd was under 0.1 nM and the koff is under 5e-05 s⁻¹.

B6: anti-TL1A Fab 17E9 (Fab, V domains shown)
VH: QVQLVESGGGVVQPGRSLRLSCAASGFTLSSYGMHWVRQAPGKGLEWVAVMSYDGNNKLYADSVKGRFTISRDNSKKTLYLQMNSLRAEDTAVYYCARDETETLYYYYGIDVWGQGTTVTVSS
VL: DIQMTQSPSSLSASVGDRVTITCRASQGISNDLAWYQQKPGKAPKRLIFAASSLQSGVPSRFSGSGSGTEFTLTISSLQPEDFATYYCLQHNSYPPTFGGGTKVEIK
notes: Fab fragment; the Fab's constant parts are not; also called 17E9 Fab; PL-39194
Take B6: the “NF-kB IC50 nM, huTL1A (0.2 nM)” value in assay [3] was found to be 70.8 nM. Besides, in assay [4], the “NF-kB IC50 nM, cyno TL1A (2 nM)” value was over 100 nM. For the same molecule, in assay [9], the binding result is “no binding (tested: 100 nM)”. Moreover, in assay [7], the Kd was under 0.1 nM and the koff was under 5e-05 s⁻¹.

B7: anti-TL1A mAb 17E9 (antibody, human IgG1, kappa, N297G, V domains shown)
VH: QVQLVESGGGVVQPGRSLRLSCAASGFTLSSYGMHWVRQAPGKGLEWVAVMSYDGNNKLYADSVKGRFTISRDNSKKTLYLQMNSLRAEDTAVYYCARDETETLYYYYGIDVWGQGTTVTVSS
VL: DIQMTQSPSSLSASVGDRVTITCRASQGISNDLAWYQQKPGKAPKRLIFAASSLQSGVPSRFSGSGSGTEFTLTISSLQPEDFATYYCLQHNSYPPTFGGGTKVEIKR
notes: also called PL-39113; iPS 284078
In the case of B7, in [3], the “NF-kB IC50 nM, huTL1A (0.2 nM)” value is 0.168 nM. Moreover, the “NF-kB IC50 nM, cyno TL1A (2 nM)” value in [4] is over 100 nM. Besides, in [5], the Kd turned out to be 0.22 nM, the koff amounted to 5.3e-05 s⁻¹ and the kon was found to be 250000 M⁻¹ s⁻¹. In [6], binding was characterised by a dissociation constant (Kd) of 2.8 nM, the koff is 0.002 s⁻¹ and the kon is 730000 M⁻¹ s⁻¹.

Broadly, the Kd is the equilibrium constant for the complex coming apart. A higher Kd goes with weaker binding. Usually koff stands for a measure of how fast the partners let go of each other. High values mean fast dissociation, low ones slow dissociation. A word on the kon: it is the second-order rate constant of association. Lower therefore signals slower complex formation.

These data come from US20190119407A1 (Amgen, published 2019).
